{"source": "the supplement of paper PMC9428881", "note": "± gives the standard error."}
{"experiment": "background-corrected fluorescence of 3'-dye-labeled ssDNA relative to brightest sequence (3'-GCGCG) (fraction); higher = brighter dye fluorescence (less quenching)", "details": "dye: Cy5 (3' terminal)", "summary_of_the_method": "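Each of 1024 permuted pentamers was synthesized as single-stranded DNA on glass slides by light-directed phosphoramidite chemistry, with a 3' Cy3 or Cy5 dye alongside. Arrays were scanned at 532 or 635 nm before and after overnight deprotection with ethylenediamine/ethanol. Values average 10 features per array across at least 3 syntheses. The fluorescence readout, with unlabeled-oligo background removed, is given relative to the brightest sequence.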"}
{"sequence": "TTTTTTGCTGATGATGATGCTTTTTTTTTTTTTTTACCCA", "background-corrected fluorescence": "0.351 ± 0.019"}
{"sequence": "TTTTTTGCTGATGATGCGCATTTTTTTTTTTTTTTACCAT", "background-corrected fluorescence": "0.364 ± 0.024"}
{"sequence": "TTTTTTGCTGATGATGCTCATTTTTTTTTTTTTTTACCAG [GACCA]", "background-corrected fluorescence": "0.378 ± 0.028"}
{"sequence": "TTTTTTGCTGATGATGCTGATTTTTTTTTTTTTTTACCAC [CACCA]", "background-corrected fluorescence": "0.286 ± 0.018"}
{"sequence": "TTTTTTGCTGATGATGCTGCTTTTTTTTTTTTTTTACCAA [AACCA]", "background-corrected fluorescence": "0.402 ± 0.022"}
{"sequence": "TTTTTTGCTGATGCGCAGCATTTTTTTTTTTTTTTACATT", "background-corrected fluorescence": "0.384 ± 0.021"}
{"sequence": "TTTTTTGCTGATGCGCATCATTTTTTTTTTTTTTTACATG [GTACA]", "background-corrected fluorescence": "0.409 ± 0.023"}
{"sequence": "TTTTTTGCTGATGCGCATGATTTTTTTTTTTTTTTACATC [CTACA]", "background-corrected fluorescence": "0.322 ± 0.018"}
{"sequence": "TTTTTTGCTGATGCGCATGCTTTTTTTTTTTTTTTACATA [ATACA]", "background-corrected fluorescence": "0.403 ± 0.038"}
{"sequence": "TTTTTTGCTGATGCTCAGCATTTTTTTTTTTTTTTACAGT [TGACA]", "background-corrected fluorescence": "0.474 ± 0.03"}
{"sequence": "TTTTTTGCTGATGCTCATCATTTTTTTTTTTTTTTACAGG [GGACA]", "background-corrected fluorescence": "0.511 ± 0.053"}
{"sequence": "TTTTTTGCTGATGCTCATGATTTTTTTTTTTTTTTACAGC [CGACA]", "background-corrected fluorescence": "0.404 ± 0.024"}
{"sequence": "TTTTTTGCTGATGCTCATGCTTTTTTTTTTTTTTTACAGA [AGACA]", "background-corrected fluorescence": "0.459 ± 0.036"}
{"sequence": "TTTTTTGCTGATGCTGAGCATTTTTTTTTTTTTTTACACT [TCACA]", "background-corrected fluorescence": "0.35 ± 0.033"}
{"sequence": "TTTTTTGCTGATGCTGATCATTTTTTTTTTTTTTTACACG [GCACA]", "background-corrected fluorescence": "0.422 ± 0.054"}
{"sequence": "TTTTTTGCTGATGCTGATGATTTTTTTTTTTTTTTACACC [CCACA]", "background-corrected fluorescence": "0.275 ± 0.012"}
{"sequence": "TTTTTTGCTGATGCTGATGCTTTTTTTTTTTTTTTACACA", "background-corrected fluorescence": "0.374 ± 0.031"}
{"sequence": "TTTTTTGCTGATGCTGCGCATTTTTTTTTTTTTTTACAAT [TAACA]", "background-corrected fluorescence": "0.396 ± 0.021"}
{"sequence": "TTTTTTGCTGATGCTGCTCATTTTTTTTTTTTTTTACAAG [GAACA]", "background-corrected fluorescence": "0.425 ± 0.021"}
{"sequence": "TTTTTTGCTGATGCTGCTGATTTTTTTTTTTTTTTACAAC [CAACA]", "background-corrected fluorescence": "0.302 ± 0.032"}
{"sequence": "TTTTTTGCTGATGCTGCTGCTTTTTTTTTTTTTTTACAAA [AAACA]", "background-corrected fluorescence": "0.499 ± 0.064"}
{"sequence": "TTTTTTGCTGCGCAGCAGCATTTTTTTTTTTTTTTAATTT", "background-corrected fluorescence": "0.39 ± 0.025"}
{"sequence": "TTTTTTGCTGCGCAGCATCATTTTTTTTTTTTTTTAATTG [GTTAA]", "background-corrected fluorescence": "0.381 ± 0.025"}
{"sequence": "TTTTTTGCTGCGCAGCATGATTTTTTTTTTTTTTTAATTC [CTTAA]", "background-corrected fluorescence": "0.297 ± 0.018"}
{"sequence": "TTTTTTGCTGCGCAGCATGCTTTTTTTTTTTTTTTAATTA [ATTAA]", "background-corrected fluorescence": "0.43 ± 0.027"}
{"sequence": "TTTTTTGCTGCGCATCAGCATTTTTTTTTTTTTTTAATGT [TGTAA]", "background-corrected fluorescence": "0.507 ± 0.031"}
{"sequence": "TTTTTTGCTGCGCATCATCATTTTTTTTTTTTTTTAATGG [GGTAA]", "background-corrected fluorescence": "0.51 ± 0.048"}
{"sequence": "TTTTTTGCTGCGCATCATGATTTTTTTTTTTTTTTAATGC [CGTAA]", "background-corrected fluorescence": "0.4 ± 0.035"}
{"sequence": "TTTTTTGCTGCGCATCATGCTTTTTTTTTTTTTTTAATGA [AGTAA]", "background-corrected fluorescence": "0.524 ± 0.03"}
{"sequence": "TTTTTTGCTGCGCATGAGCATTTTTTTTTTTTTTTAATCT [TCTAA]", "background-corrected fluorescence": "0.338 ± 0.02"}
{"sequence": "TTTTTTGCTGCGCATGATCATTTTTTTTTTTTTTTAATCG [GCTAA]", "background-corrected fluorescence": "0.399 ± 0.026"}
{"sequence": "TTTTTTGCTGCGCATGATGATTTTTTTTTTTTTTTAATCC [CCTAA]", "background-corrected fluorescence": "0.29 ± 0.018"}
{"sequence": "TTTTTTGCTGCGCATGATGCTTTTTTTTTTTTTTTAATCA [ACTAA]", "background-corrected fluorescence": "0.382 ± 0.028"}
{"sequence": "TTTTTTGCTGCGCATGCGCATTTTTTTTTTTTTTTAATAT [TATAA]", "background-corrected fluorescence": "0.413 ± 0.036"}
{"sequence": "TTTTTTGCTGCGCATGCTCATTTTTTTTTTTTTTTAATAG [GATAA]", "background-corrected fluorescence": "0.408 ± 0.017"}
{"sequence": "TTTTTTGCTGCGCATGCTGATTTTTTTTTTTTTTTAATAC [CATAA]", "background-corrected fluorescence": "0.317 ± 0.019"}
{"sequence": "TTTTTTGCTGCGCATGCTGCTTTTTTTTTTTTTTTAATAA", "background-corrected fluorescence": "0.446 ± 0.022"}
{"sequence": "TTTTTTGCTGCTCAGCAGCATTTTTTTTTTTTTTTAAGTT [TTGAA]", "background-corrected fluorescence": "0.433 ± 0.024"}
{"sequence": "TTTTTTGCTGCTCAGCATCATTTTTTTTTTTTTTTAAGTG [GTGAA]", "background-corrected fluorescence": "0.457 ± 0.042"}
{"sequence": "TTTTTTGCTGCTCAGCATGATTTTTTTTTTTTTTTAAGTC [CTGAA]", "background-corrected fluorescence": "0.349 ± 0.015"}
{"sequence": "TTTTTTGCTGCTCAGCATGCTTTTTTTTTTTTTTTAAGTA [ATGAA]", "background-corrected fluorescence": "0.493 ± 0.074"}
{"sequence": "TTTTTTGCTGCTCATCAGCATTTTTTTTTTTTTTTAAGGT [TGGAA]", "background-corrected fluorescence": "0.585 ± 0.052"}
{"sequence": "TTTTTTGCTGCTCATCATCATTTTTTTTTTTTTTTAAGGG [GGGAA]", "background-corrected fluorescence": "0.558 ± 0.029"}
{"sequence": "TTTTTTGCTGCTCATCATGATTTTTTTTTTTTTTTAAGGC [CGGAA]", "background-corrected fluorescence": "0.492 ± 0.038"}
{"sequence": "TTTTTTGCTGCTCATCATGCTTTTTTTTTTTTTTTAAGGA [AGGAA]", "background-corrected fluorescence": "0.635 ± 0.045"}
{"sequence": "TTTTTTGCTGCTCATGAGCATTTTTTTTTTTTTTTAAGCT [TCGAA]", "background-corrected fluorescence": "0.402 ± 0.026"}
{"sequence": "TTTTTTGCTGCTCATGATCATTTTTTTTTTTTTTTAAGCG [GCGAA]", "background-corrected fluorescence": "0.513 ± 0.033"}
{"sequence": "TTTTTTGCTGCTCATGATGATTTTTTTTTTTTTTTAAGCC [CCGAA]", "background-corrected fluorescence": "0.312 ± 0.023"}
{"sequence": "TTTTTTGCTGCTCATGATGCTTTTTTTTTTTTTTTAAGCA [ACGAA]", "background-corrected fluorescence": "0.451 ± 0.026"}
{"sequence": "TTTTTTGCTGCTCATGCGCATTTTTTTTTTTTTTTAAGAT [TAGAA]", "background-corrected fluorescence": "0.496 ± 0.081"}
{"sequence": "TTTTTTGCTGCTCATGCTCATTTTTTTTTTTTTTTAAGAG [GAGAA]", "background-corrected fluorescence": "0.489 ± 0.086"}
